This is an account of results in patent CN114984207A (ZHEJIANG TERUISI PHARMACEUTICAL INC, dated 2022).

What is called EC50 is the concentration at which the effect is half-maximal. The term kon denotes the second-order rate constant of association. Read a high kon as fast association.

Experiment [1] deals with T1, 人PD-1蛋白(Acro PD1-HB2F2) (human, UniProt Q15116 25-167, limits assumed).
T1 construct: Bought protein coated on the ELISA plate; also called 抗原PD-1蛋白; human PD-1 protein
Nature of the experiment: ELISA, human PD-1 protein coated at 20 ng/mL, antibody titrated from 1000 ng/mL.

Experiment [2] deals with T2, PD-1蛋白 (冻干, fortebio assay) (UniProt Q15116 25-167, limits assumed).
T2 construct: also called 抗原PD-1蛋白; 冻干PD-1蛋白
Nature of the experiment: BLI (Octet K2), antibody captured on Protein A sensor, PD-1 protein as analyte from 50 nM, 2-fold dilutions. On the technique in general: Biolayer interferometry detects binding as a change in optical thickness at a sensor tip.

T2 sequence (Q15116 25-167 limits assumed): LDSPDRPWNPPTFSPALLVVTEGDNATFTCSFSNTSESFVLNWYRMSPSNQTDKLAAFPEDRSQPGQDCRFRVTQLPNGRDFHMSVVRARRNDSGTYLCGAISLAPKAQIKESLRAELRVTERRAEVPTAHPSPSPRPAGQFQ
T1 sequence (Q15116 25-167 limits assumed): as above

B1: 抗PD-1纳米抗体 N7 (Fc fusion)
chain: QVQLQESGGGLVQPGGSLRLSCAASGSTYLRFSMGWFRQVPGKEREGVAAIGGDGRTSYADSVKGRFTISKDNSKNTLYLDMNSLRAEDTAVYYCAAAVLLDGSFSLLAPLVPYKYDYWGQGTLVTVSSERKSSVECPPCPAPEFLGGPSVFLFPPKPKDTLMISRTPEVTCVVVDVSQEDPEVQFNWYVDGVEVHNAKTKPREEQFNSTYRVVSVLTVLHQDWLNGKEYKCKVSNKGLPSSIEKTISKAKGQPREPQVYTLPPSQEEMTKNQVSLTCLVKGFYPSDIAVEWESNGQPENNYKTTPPVLDSDGSFFLYSRLTVDKSRWQEGNVFSCSVMHEALHNHYTQKSLSLSLGK
Take B1: the EC50 in experiment [1] was determined as 9.98 ng/mL. The same molecule displayed an on-rate (kon) in experiment [2] of 274000 M⁻¹ s⁻¹.
